# Tested on: Saccharomyces cerevisiae
# Experiment: transcriptional activation domain activity (GFP:mCherry ratio, weighted mean of sorted bins, harmonized to initial dataset scale) (arbitrary fluorescence ratio units); higher = stronger transcriptional activation
# Settings: beta-estradiol 1 µM; induction time 4 h
# Method in brief: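 For this assay, yeast diploids with a GFP reporter carried barcoded protein tiles at URA3, each fused to an estradiol-inducible synthetic transcription factor. Induction was a 1:5 dilution into SC with 1 uM beta-estradiol for 4 hours at 30 °C, followed by sorting into 8 bins by GFP:mCherry ratio and barcode sequencing. Tiles under 50 reads were dropped, and activation activity was calculated as the read-weighted mean of bin median fluorescence, averaged across barcodes and linearly mapped onto the initial dataset scale.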
row,Sequence,transcriptional activation domain activity
1,TVMVFGSDEKRVKAVGDMLKANLNVKGGGKGTRWSGKRTGVWSDSREGAAVTG,47800
2,TVPVLVLVIYDWPRDRSNAYQVVLAISIWCWGVYQLLYIFLCGLYNPNFSTFR,59700
3,TVQLLKLFCAFSSLSSILIALLLQTPYYLATTWGTLLRRYIIFFSFPLINSIS,54200
4,TVSDEAIEVCVAAQAREGEANKSVREVIAEALNVPKSDVEIAKGMKSREKTVA,25700
5,TVWLILNDQTLGYALGSFLCENSLLLSQRINEFFDTVLVAWMQWVLRWLDSWP,40400
6,TWHHSIYVPYSFVAAYDHPVCYLIHRFLPLYLTAITFRFHIMTYLLLVGLFSL,45200
7,TWILNIPWPQTHMVAVLSLAGFLYFLILDIYEYMCYSYLVLLGTMWFVDIMFF,73600
8,TWKVIGLVWRCPELTEYLNKVILTIIIIRSESHFDSSIAALNESCLTPYGTVD,28800
9,TWLLFRQVVDVILINDFLAYCMFAFSCFRVPTDLSIPVHVMRWLVGITLIWFN,74100
10,TWPINYRIRYILPLLVIAGYTKETLRLIQCIHQTRSSFFTPHFFRRMLRVLLR,52500
11,TWPYSSLSELEDLMDRFKRMLTLLRMHLKHVAELEVMVTLWKYMGVLLEFLGS,61800
12,TYAIWNCNKWILCILVVVASGVYISSAVILHDIFQSYEYPVLSLPTKMYCLPF,18700
13,TYINYLITSNAGLTATIVHMLLWNYAEVSLGWSWITIANMKKLLRPETYKFWQ,33300
14,TYIPCDPLLTIVGGNVPFSSLGLRAFSLAMYSLLVIPGLNLVLPFLFFLLLHL,92200
15,TYPVSMPFDGTLNLDLDMCFLDVTNTDINFSDIFDPNFQFGSYGFPLSLDYDI,139000
16,TYSDVDGEILWPPPVMNVMMIERCGAVCCRVSVGWVLLRRWAQVKRKWETIVL,41700
17,TYTPPVEKPDVEEQSRTRLIGLAALNGASSSEGAFSSSTEFPRQVRVIVPALL,39800
18,VAAAAAETERAAEAERVAEAGRREEAEGTTDTGKTETGRREEADGTAGAAKAA,24800
19,VAACLVNWDMKAAFVCVQSGNLKGVQALSALLGYVQIYYVQWLCAIVIAILYI,60000
20,VAAFAVFCSIEARGSLYVFSVDAVKRVGRRIKHFWHGVWTVLRTAVLLCTCGR,77400
21,VAALLATSLCMIYPLWSIFSIVQVIYMFANICLLVWVIPKGLHFACYYLLGVS,37400

row,Sequence,transcriptional activation domain activity
1,VAAVSRGEKERHRDRDREKKPSRSKPEKSSRRVVEKEEKTSSKGSASDKADKT,39700
2,VACAVLIAVSIFATIYVVLTSLPVIFQQCPFQTPLSSIIWYLGHLLVIASLSL,28400
3,VACEEEMRKLDEEDGRAGLGKGGEGEADREFKRHLRRMRASEVRIVRNVGDLL,29000
4,VADVMLQRSTLVIGYCLVITIICCSVFLLYSMDFLSSCISFIWIGMVTLMICL,41500
5,VAECLKAMVKWPITMSPTCFHKRLIPCIFFWSQNLLGILLLLHLTEQVPILVR,72600
6,VAEDAVVAEDAVAAVVDVDVNHVAAAAVVDVEDVEGAEDVEGVVDAAAHRVAA,16900
7,VAEDLFERVRLDWLILFDLRMWKKVRCDLRSLYISTVVTIPEFKRVLGLRFAG,37300
8,VAGVKSDWDASSDEEEKPVPVAERVNGASSQKSAASKSPSKVTPMPSKTAHLV,21300
9,VAIFTDVKNDHLMPNFNLHDQYCNSTNHDSHNHNNTVPDSFSQLMSHLSEIDC,27700
10,VAKCFEKVKALIGTFDLDVGRVLDVTLDVFASLLVKHHKFFIKLLRCSYWWPV,83300
11,VALACLLTVLPFLVVLGTFILSLTIYTFFLDRSIMVAFFHPFLHPFFFFSFFV,25400
12,VALATWVIVIAVLLPTIFLIGFIESYCWFRRMMLGRSALRLGTICWCVMSLWF,65100
13,VALDHLYLDEEQTHAIKSLSSLYIKVVIIFIKYLLVHRKIKQRLVRSWAYCYD,57900
14,VALPCSFRGLLRFACVTWLKHLFGLISRVLDFQAWWGVQLHCLFLLGLMLLPP,63500
15,VALTFYFLFLLFLILLRLGLISCFVFFNFWYIYHFFYLSINLSIFFISFHSFI,78300
16,VANHQIYADWLYVWCLTYFMGMHKDVLIVLKRSLKWVPVLGWGMQIFRFIFLA,70100
17,VANILCLSTSLLACSMVFWSIPSWYYLVSHYQEWMPHVILPLYLLWWLFMMLV,39200
18,VAPLLLAGACCIAHHFMLVFLEGCTVQSEFWIRNANSAFSLLISALLASCVGT,77100
19,VARKLLNTIHPALGPLHACSVLRKIRVLICMAGEHATSTYPLEMLLHSLRVFV,44700
20,VARVVNVFLWSMAVTFFLLVMHRITVYRAQQLYITTYCDPYFPIYPLRRILPQ,45400
21,VASVLVFICHYTECNWGDLTHFYGVNKEHPGSFIQMPYIRLIYSGRPMVHIFF,29900

row,Sequence,transcriptional activation domain activity
1,VATADVCMVTHFLILLLLAAITGAVLVSVFAFLCVICPPHLRRRPVFMLNLLA,35400
2,VAVAREPFQEGADASGKLYNKDSLDDEDSRKYVVILNAFLQMLAALDELVLVL,76700
3,VAVARTKARKAVVGIEKVEIAAEVEATPEIVTAARTRERKAVVGIESAETVAE,45800
4,VAVTFHTEPHRLVSIIPALISIWDYILGLSPAELSSCTGIHWCIYILTIIFGF,55400
5,VCEEAVGCVRRAALEGFVDEDVRAANVLVRRAGERKERAGRAGRSRVVLVDLA,32600
6,VCFMGVLIGLLPGTWLCYGSDVCVKGLSSSIISMQLGLLGSLLLILKLVIGVA,61700
7,VCGAHCGYILGHINIFQPINWVLVQSSKVFPIDYVLFLLLVLFFFSASVVGLA,21400
8,VCKHLKRQRISVDGSLKLISDMNHYFTYIETLKNNELLLYFKALRELSQIYLV,70700
9,VCKLLRLETLRWIFREFHWKLHLRKRFLPYHLLTYMRTLRITANNSIKHLSFN,41000
10,VCLNLLGGVVVCYCPGLLVIAAIEAPIRFKHIFTCSIHIHSLYLRLLFCALHA,69200
11,VCLSLYIITCVFGWLLYFITATLSYYYVFDHDYMKHPKFLKNQIRLEINCAAS,76600
12,VCQPLSPPVTGVLLVSFLPLFSRAFLAFLLSTLWLFSPLSDHILYYFCFYLAL,35200
13,VCVANIFVVFSLYSYTWIQAVVISLSILVYYAFIAIYAQFNTFLFAGQIRLFG,70400
14,VCVCVWELVLVLVVWCCHCFSFVHSLHFLPWLLFSSPLVFLFPFPFFFFCLFL,68600
15,VCVLHLIVIALSLTDLILPSLIWGLTAIFLGVYAIVQKLSIALIVQPQLFGTL,65700
16,VCVRVDWPWLSFPTALVLLTVVLFVTVLVIARRSQVSEGQPIWKSSSIVAFFH,41100
17,VDADTASSVSGMTGGRSARWREDVMELCLACVAVGCVKDVGAVNNYHQTGELR,42700
18,VDAKFVIVANYGTACVVMGFLAVAMYCLLITVGDDIYFVGMLFSFTIIGTLMI,29300
19,VDASTIARLSSPELGAREQLRQEEERRRKIERRARRRERRERERSSALLHLTG,33400

# From the supplement of paper PMC12636428
